The test system of this assay is NL-Rluc virus. Kind of assay: Combinectin potency assay: antiviral EC50, NL-Rluc virus in MT-2 cells, luciferase readout. The conditions noted are these: Anti-N17 Adnectin, Table 3. Type of assay: cell-based, HIV-1. The essentials: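 MT-2 cells infected with replication-competent NL-Rluc HIV (nef replaced by Renilla luciferase) at MOI 0.01 for 1 h, then added to threefold-diluted peptides (11 concentrations, triplicate). After 4–5 days, luciferase measured by Dual Luciferase; EC50 relative to no-peptide wells.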

We go through 13 molecules from patent US11155602B2, “Polypeptides targeting HIV fusion” (priority 2015, dated 2021).

B1: 122 (protein)
chain: MGHHHHHHGGVSDVPRDLEVVAATPTSLLISWQYKVHPYRYYRITYGETGGNSPVQEFTVPSVLSTAEISGLKPGVDYTITVYAVTRGVDSAPISINYRTPGG
modifications: Adnectin
As usually defined, the EC50 is the concentration needed to bring the measured effect to its halfway point. Regarding B1, the EC50 was determined as 6 nM.

B2: 196 (protein)
chain: MGHHHHHHGGSVSDVPRDLEVVAATPTSLLISWEYKVHPYRYYRITYGETGGNSPVQEFTVPSVLSTATISGLKPGVDYTITVYAVTYGDVSAPISINYRTEID
modifications: Adnectin
Turning to B2, the EC50 worked out at 86 nM.

B3: 203 (protein)
chain: MGHHHHHHGGSVSDVPRDLEVVAATPTSLLISWEYKVHPYRYYRITYGETGGNSPVQEFTVPSVLSTATISGLKPGVDYTITVYAVTYGDDSGPISINYRTEID
modifications: Adnectin
For the molecule B3, the EC50 turned out to be 86 nM.

B4: 206 (protein)
chain: MGHHHHHHGGSVSDVPRDLEVVAATPTSLLISWEYKVHPYRYYRITYGETGGNSPVQEFTVPSVLSTATISGLKPGVDYTITVYAVTYGDDSKPISINYRTEID
modifications: Adnectin
B4: the EC50 came out at 237 nM.

B5: 201 (protein)
chain: MGHHHHHHGGSVSDVPRDLEVVAATPTSLLISWEYKVHPYRYYRITYGETGGNSPVQEFTVPSVLSTATISGLKPGVDYTITVYAVTYGDQSAPISINYRTEID
modifications: Adnectin
As for B5, the EC50 was 20 nM.

B6: 207 (protein)
chain: MGHHHHHHGGSVSDVPRDLEVVAATPTSLLISWEYKVHPYRYYRITYWETGGNSPVQEFTVPSVLSTATISGLKPGVDYTITVYAVTYGDDSAPISINYRTEID
modifications: Adnectin
Consider B6, for which the EC50 is more than 1000 nM.

B7: 205 (protein)
chain: MGHHHHHHGGSVSDVPRDLEVVAATPTSLLISWEYDVHPYRYYRITYGETGGNSPVQEFTVPSVLSTATISGLKPGVDYTITVYAVTYGDDSAPISINYRTEID
modifications: Adnectin
For B7, the EC50 came to 86 nM.

B8: 202 (protein)
chain: MGHHHHHHGGSVSDVPRDLEVVAATPTSLLISWEYKVHPYRYYRITYGETGGNSPVQEFTVPSVLSTATISGLKPGVDYTITVYAVTYGDDSKPISINYRTEID
modifications: Adnectin
Take B8: the EC50 is more than 1000 nM.

B9: 199 (protein)
chain: MGHHHHHHGGSVSDVPRDLEVVAATPTSLLISWEYKVHPYRYYRITYGETGGNSPVQEFTVPSVLSTATISGLKPGVDYTITVYAVTYGDDSQPISINYRTEID
modifications: Adnectin
Take B9: the EC50 was more than 1000 nM.

B10: 198 (protein)
chain: MGHHHHHHGGSVSDVPRDLEVVAATPTSLLISWEYKVHPYRYYRITYGETGGNSPVQEFTVPSVLSTATISGLKPGVDYTITVYAVTYGDDSAPISIQYRTEID
modifications: Adnectin
Turning to B10, the EC50 came out at 2830 nM.

B11: 197 (protein)
chain: MGHHHHHHGGSVSDVPRDLEVVAATPTSLLISWEYKVHPYRYYRITYGETGGNSPVQEFTVPSVLSTATISGLKPGVDYTITVYAVTYGDDSGPISINYRTEID
modifications: Adnectin
B11: the EC50 was 81 nM.

B12: 208 (protein)
chain: MGHHHHHHGGSVSDVPRDLEVVAATPTSLLISWEYKVHPYRYYRITYGETGGNSPVQEFTVPSVLSTATISGLKPGVDYTITVYAVTYGDDSTPISINYRTEID
modifications: Adnectin
Regarding B12, the EC50 was more than 1000 nM.

B13: 200 (protein)
chain: MGHHHHHHGGSVSDVPRDLEVVAATPTSLLISWEYKVHPYRYYRITYTETGGNSPVQEFTVPSVLSTATISGLKPGVDYTITVYAVTYGDDSAPISINYRTEID
modifications: Adnectin
For B13, the EC50 was more than 1000 nM.
